These results are taken from paper PMC12361444.

The target of this test is HAdV-C5 hexon protein (human adenovirus C5) (UniProt P04133).
Sequence of UniProt P04133 (P04133 whole entry): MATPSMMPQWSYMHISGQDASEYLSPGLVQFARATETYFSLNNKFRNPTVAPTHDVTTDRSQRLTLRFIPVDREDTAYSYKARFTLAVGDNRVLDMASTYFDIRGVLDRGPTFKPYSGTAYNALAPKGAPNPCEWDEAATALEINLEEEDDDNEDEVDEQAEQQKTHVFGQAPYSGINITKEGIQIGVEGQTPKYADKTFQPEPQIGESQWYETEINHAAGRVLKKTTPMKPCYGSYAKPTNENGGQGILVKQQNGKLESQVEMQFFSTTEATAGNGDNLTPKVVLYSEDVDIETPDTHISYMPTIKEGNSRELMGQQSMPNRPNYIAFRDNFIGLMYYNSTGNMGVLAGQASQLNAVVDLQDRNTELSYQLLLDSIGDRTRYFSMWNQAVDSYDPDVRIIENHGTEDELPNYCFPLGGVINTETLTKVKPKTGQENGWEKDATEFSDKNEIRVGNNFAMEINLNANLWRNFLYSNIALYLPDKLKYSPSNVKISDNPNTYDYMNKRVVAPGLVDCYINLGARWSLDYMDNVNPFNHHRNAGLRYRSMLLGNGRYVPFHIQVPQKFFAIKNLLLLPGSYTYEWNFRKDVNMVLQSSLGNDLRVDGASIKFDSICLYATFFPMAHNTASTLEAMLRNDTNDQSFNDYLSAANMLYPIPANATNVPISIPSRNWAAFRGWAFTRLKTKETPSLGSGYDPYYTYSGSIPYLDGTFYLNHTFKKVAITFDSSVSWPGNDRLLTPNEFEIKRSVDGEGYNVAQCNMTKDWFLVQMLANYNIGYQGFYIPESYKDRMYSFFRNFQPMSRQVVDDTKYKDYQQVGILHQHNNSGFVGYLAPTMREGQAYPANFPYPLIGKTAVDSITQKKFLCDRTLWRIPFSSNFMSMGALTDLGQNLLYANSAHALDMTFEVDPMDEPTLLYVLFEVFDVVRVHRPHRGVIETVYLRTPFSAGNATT

Human lactoferricin 1-49 (peptide) registered a qPCR of cell-bound HAdV-C5 genomes on myoblasts (5000 vp/cell, 2 µM Lfcin, on ice 30 min), with versus without Lfcin of 20 fold.
